Results from patent US20100028993A1.
Square brackets hold non-standard residues; d marks the D form. Ends that are not written are not given here. Hyp = O=C(O)[C@@H]1C[C@@H](O)CN1

Legend:
[1] = target: growth hormone receptor (GHR) on GHR-expressing NIH 3T3-L1 cells (Mus musculus (Mouse)) (UniProt P16882); assay: radioreceptor competition assay; displacement of [125I]-hGH from monolayers of GHR-expressing NIH 3T3-L1 cells
[2] = target: anti-hGH-(SO)10 antibodies (1:10,000 serum dilution); assay: competition ELISA; hGH-(SO)10-coated plates, anti-hGH-(SO)10 serum 1:10,000, 100 ug/ml (SO)10 as competitive inhibitor

UniProt P16882, sequence (P16882 25-650 limits assumed, form in doubt): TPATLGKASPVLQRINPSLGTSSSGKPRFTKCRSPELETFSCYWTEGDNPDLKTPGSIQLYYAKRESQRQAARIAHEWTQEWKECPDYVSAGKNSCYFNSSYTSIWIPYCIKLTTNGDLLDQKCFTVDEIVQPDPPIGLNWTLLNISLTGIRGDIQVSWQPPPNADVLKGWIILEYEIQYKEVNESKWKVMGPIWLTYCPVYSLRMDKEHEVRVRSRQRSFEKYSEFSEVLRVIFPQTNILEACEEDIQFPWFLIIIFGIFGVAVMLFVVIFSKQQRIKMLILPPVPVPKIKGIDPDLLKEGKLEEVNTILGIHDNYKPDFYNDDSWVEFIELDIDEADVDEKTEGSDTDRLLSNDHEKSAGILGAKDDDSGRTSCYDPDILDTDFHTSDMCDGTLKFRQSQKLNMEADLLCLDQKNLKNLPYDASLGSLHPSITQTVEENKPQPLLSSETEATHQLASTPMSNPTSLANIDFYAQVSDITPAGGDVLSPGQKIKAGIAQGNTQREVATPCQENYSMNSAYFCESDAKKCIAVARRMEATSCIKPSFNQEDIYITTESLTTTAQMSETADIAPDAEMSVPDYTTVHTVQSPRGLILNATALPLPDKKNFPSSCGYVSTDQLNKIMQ

EC50 [1] | percent inhibition [2] | Molecule
10 nM |  | hGH-(SP)10-EGFP fusion glycoprotein (ligand)
 | 5% | S[Hyp]S[Hyp]S[Hyp]S[Hyp]S[Hyp]S[Hyp]S[Hyp]S[Hyp]S[Hyp]S[Hyp] (not fully specified) [purified (SP)10 / (SO)10 glycomodule]
